# Results: patent WO2021228904A1 (dated 2021)
# Target: T1, stabilized prefusion SARS-CoV-2 S ectodomain (SARS-CoV-2 (Wuhan-Hu-1), UniProt P0DTC2 15-1138)
# Experiment: not named there; ELISA in Example 4
row,Binder,binding result
1,"SEQ ID NOs: 605/609 (HCVR/LCVR) (antibody, V domains shown) VH: not shown VL: QTVVTQPPSVSVSPGQTARITCSGDALPKQYAYWYQQKPGQAPVLVIYKDSERPSGIPERFSGSSSGTTVTLTISGVQAEDEADYYCQSADSSGTYRVFGGGTKLTVL",binds
2,"SEQ ID NOs: 57/61 (HCVR/LCVR) (antibody, V domains shown) VH: not shown VL: QSVLTQPASVSGSPGQSITISCTGTSSDVGGYNYVSWYQQHPGKAPKLMIYDVSNRPSGVSNRFSGSKSGNTASLTISGLQAEDEADYYCSSYTSSSTRHWVFGGGTKLTVL",binds
3,"SEQ ID NOs: 65/69 (HCVR/LCVR) (antibody, V domains shown) VH: QLQLVESGPGLVKPSETLSLTCTVSGGSISSYFWSWIRQPPGKGLEWIGYIYYSGSTNYNPSLKSRVTISVDTSKNQFSLKLSSVTAADTAVYYCARHSQGWLQQAVAFDIWGQGTMVTVSS VL: not shown",binds
4,"SEQ ID NOs: 509/513 (HCVR/LCVR) (antibody, V domains shown) VH: QVQLQQSGPGLVKPSETLPLTCTVSGGSISSSSYYWGWIRQPPGKGLEWIGSVFYSGSTYYNPSLKSRVTISVDTSKNQLSLKLSSVTAADTAVYYCARQVRQWLEDDAFDIWGQGTMVTVSS VL: DIQLTQSPSSLSASVGDRVTITCRASQGIRNDLGWYQQKPGKAPKRLIYAASSLQSGVPSRFSGSGSGTEFTLTISSLQPEDFATYYCLQHNSYPLTFGGGTKVDIK",binds
5,"SEQ ID NOs: 549/553 (HCVR/LCVR) (antibody, V domains shown) VH: QVQLVQPGAEVKKPGASVKVSCKASGYTFTSYGISWVRQAPGQGLEWMGWISAYNGDTNYAQKLQGRVTMTTDTSTSTAYMELRSLKSDDTAVYYCARFDYGYPYSSWSVLSIDYWGQGTLVTVSS VL: DIVMTQSPSSLSASVGDRVTITCRASQGIRNDLGWYQQKPGKAPKRLIYAASSLQSGVPSRFSGSGSGTEFTLTISSLQPEDFATYYCLQHNSYPLTFGGGTKLEIK",binds
6,"SEQ ID NOs: 557/561 (HCVR/LCVR) (antibody, V domains shown) VH: EVQLVESGGGVVQPGRSLRLSCAASGFTFSSYAMHWVRQAPGKGLEWVAVISYDGSYKYYADSVKGRFTISRDNSKNTLYLQMNSLTAEDTAVYYCAREGSRQWLVIYFDYWGQGTLVTVSS VL: AIRMTQSPSSLSASVGDRVTITCRASQSISSYLNWYQQKPGKAPKLLIYAASSLQSGVPSRFSGSGSGTDFTLTISSLQPEDFATYYCQQSYTTFIYTFGQGTKLEIK",binds
7,"SEQ ID NOs: 621/625 (HCVR/LCVR) (antibody, V domains shown) VH: QVQLVQSGAEVKKPGASVKVSCKVSGYTLTELSMHWVRQAPGKGLEWMGGFDPEDGETIYAQKFQGRVTMTEDTSTDTAYMELSSLRSEDTAVYYCATAYSVDTAMVRGVGYWGQGTLVTVSS VL: not shown",binds
8,"SEQ ID NOs: 581/585 (HCVR/LCVR) (antibody, V domains shown) VH: EVQLVESGGGLVQPGRSLRLSCAASGFTFDDYAMHWVRQAPGKGLEWVSGISWNSGSIGYADSVKGRFTISRDSAKNSLYLQMNSLRAEDTALYYCAKVATYYYDRSGYYYGGALDYWGQGTLVTVSS VL: not shown",binds
9,"SEQ ID NOs: 653/657 (HCVR/LCVR) (antibody, V domains shown) VH: EVQLVESGGGLVQPGRSLRLSCAASGFTFDDYAMHWVRQAPGKGLEWVSGISWNSGSIGYADSVKGRFTISRDNAKNSLYLQMNSLRAEDTALYYCAKMGPDPAHDYGRKNDAFDIWGQGTMVTVSS VL: DIVMTQSPSSLSASVGDRVTITCRASQSMSSYLNWYQQKPGKAPKLLIYAASSLQSGVPSRFSGSGSGTDFTLTISSLQPEDFATYYCQQSYSTLTFGGGTKLEIK",binds
10,"SEQ ID NOs: 661/665 (HCVR/LCVR) (antibody, V domains shown) VH: EVQLVESRAEMKKPGESLKISCKGSGYTFTNHWIAWVRQMPGKGLEWMGIIYPGDSDTRYSPSFEGQVTISADKSISTAYLQWSSLKASDTAMYYCARRGYTYGADFYGLDVWGQGTRVTVSS VL: not shown",binds
11,"SEQ ID NOs: 637/641 (HCVR/LCVR) (antibody, V domains shown) VH: QVQLVESGGGLVQPGRSLRLSCAASGFTFDDYAMHWVRQAPGKGLEWVSGISWNSGSIGYADSVKGRFTISRDNAKNSLYLQMNSLRAEDTALYYCAKAEPEVGGYDYYMDVWGKGTMVTVSS VL: not shown",binds
12,"002_P2C4 (antibody, V domains shown) VH: QVQLVESGAEVKKPGSSVKVSCKASGGTFSSYGINWVRQAPGQGLEWMGGIIPIFGTANYAQKFQGRVTITTDESTSTAYMELSSLRSEDTAVYYCASFGDDSGDEGVRWGQGTLVTVSS VL: EIVMTQSPATLSLSPGERATLSCRASQSVSSYLAWYQQKPGQAPRLLIYDASNRATGIPARFSGSGSGTDFTLTISSLEPEDFAVYYCQQRSNWPPYTFGQGTKVEIK",binds
13,"SEQ ID NOs: 41/45 (HCVR/LCVR) (antibody, V domains shown) V domain 1: EVQLVQSGGGLVQPGRSLRLSCAASGFTFGEYAMHWVRQAPGKGLEWVSGISWNSGSIDYADSVKGRFTISRDNAKNSLYLQMNSLRAEDTALYYCAKDMGEAVAGTHYGMDVWGQGTMVTASS V domain 2: QSALTQPPSVSVSPGQTASIPCSGDKLGDIYACWYQQKPGQSPVLVIYQDTKRPSGIPERFSGSNSGNTATLTISGTQAMDEADYYCQAWGSTTAKVFGGGTKLTVP",binds
14,"SEQ ID NOs: 353/357 (HCVR/LCVR) (antibody, V domains shown) VH: EVQLVQSGAEVKKPGSSVKVSCKASGGTFSSYAISWVRQAPGQGLEWMGGIIPIFGTTNYAQKFQGRVTITTDESTSTAYMELSSLRSEDTAVYYCARVYSYDSSGYYLEYWGQGTRVTVSS VL: EIVLTQSPATLSLSPGERATLSCRASQSVSSYLAWYQQKPGQAPRLLIYDASNRATGIPARFSGSGSGTDFTLTISSLEPEDFAVYYCQQRSNWPPSITFGQGTRLEIK",binds
15,"SEQ ID NOs: 461/465 (HCVR/LCVR) (antibody, V domains shown) VH: EVQLVESGAEVKKPGSSVKVSCKASGGTFSSYAISWVRQAPGQGLEWMGGIIPIFGTANYAQKFQGRATITTDESTSTAYMELSSLGSEDTAVYYCARTHSYDNSGQYFDYWGQGTMVTVSS VL: DIVMTQSPATLSLSPGERATLSCRASQSVSSFLAWYQQKPGQAPRLLIYDASNRATGIPARFSGSGSGTDFTLTISSLEPEDFAVYYCQQRSNWPPRLTFGGGTKVDIK",binds
16,"SEQ ID NOs: 305/309 (HCVR/LCVR) (antibody, V domains shown) VH: EVQLVESGGGLVKPGGSLRLSCAASGFTFGSYSMSWVRQAPGKGLEWVSSISRSSSYIYNADSVRGRLTISRDNAKNSLYLQMNSLRVEDTAVYYCARDQPLPDILTGYYTGPLDYWGQGTLVTVSS VL: not shown",binds
17,"SEQ ID NOs: 477/481 (HCVR/LCVR) (antibody, V domains shown) VH: QVQLVESGGGVVQPGRSLRLSCAASGFTFSSYAMHWVRQAPGKGLEWVAVISYDGSNKYYADSVKGRFTISRDNSKNTLYLQMNSLRAEDTAVYYCARSASGSYYGAFDYWGQGTLVTVSS VL: QTVVTQPASVSGSPGQSITISCTGTSSDVGGYNYVSWYQQHPGKAPKLMIYDVSNRPSGVSNRFSGSKSGNTASLTISGLQAEDEADYYCSSYTSSSTLGLYVFGTGTKVTVL",binds
18,"001_P1G11 (antibody, V domains shown) VH: EVQLVQSGTEVKKPGASVKVSCKASGYTFPGYYIHWVRQAPGQGLEWMGWINPNSGVAKSAQKFQGRVTMTRDSSISTVYLDVTSDDTAVYYCARDLVWATVSGTMDVWGQGTTVTVSS VL: QSALTQPPSASGSPGQSVTISCTGTSSDIGTYNYVSWYQQHPGKAPKLMIYEVTKRPSGVPDRFSGSKSGNTASLTVSGLQADDEGDYYCSSYVGNNNWVFGGGTKLTVL",binds
19,"SEQ ID NOs: 525/529 (HCVR/LCVR) (antibody, V domains shown) VH: QVQLQESGPGLVKPSGTLSLTCAVSGGSISSSNWWSWVRQPPGKGLEWIGEIYHSGSSNYNPSLKSRVTISVDKSKNQFSLKLNSVTAADTAVYYCAGRYCSGGRCGWFDPWGQGTLVTVSS VL: QSVLTQPASVSGSPGQSITISCTGTSSDVGSYNLVSWYQQHPGKAPKLMIYEASKRPSGISNRFSGSKSGNTASLTISGLQAEDEADYYCCSYAGSSTWVFGGGTKPTVL",binds
20,"SEQ ID NOs: 421/425 (HCVR/LCVR) (antibody, V domains shown) VH: EVQLVQSGAEVKKPGASVKVSCKASGYTFTSYDINWVRQATGQGLEWMGWMNPNSGNTGYAQKFQGRVTMTRNTSISTAYMELSSLRSEDTAVYYCARVVGSSWYPVDAFDIWGQGTRVTVSS VL: QSVLTQPASVSGSPGQSITISCTGTSSDVGGYNYVSWYQQHPGKAPKLMIYDVSNRPSGVSNRFSGSKSGNTASLTISGLQAEDEADYYCSSYTSSSTLVVFGGGTKLTVL",binds

# Target: T1, stabilized prefusion SARS-CoV-2 S …
# Experiment: SPR
row,Binder,Kd [nM]
1,"COVA1-18 (antibody, V domains shown) VH: EVQLVESGGGLVQPGGSLRLSCAASGFTVSSNYMSWVRQAPGKGLEWVSVIYSGGSTYYADSVKGRFTISRDNSKNTLYLQMNSLRAEDTAVYYCARVEWAAAGTFYWGQGTLVTVSS VL: QSALTQEPSLTVSPGGTVTLTCGSSTGAVTSGHYPYWFQQKPGQAPRTLIYDTSNKRSWTPARFSGSLLGGKAALTLSGAQPEDEAEYYCLLSYSGVWVFGGGTKLTVL",≤ 1
2,"SEQ ID NOs: 405/409 (HCVR/LCVR) (antibody, V domains shown) VH: EVQLVESGAEVKKPGASVKVSCKVSGYTLPELSMHWVRQTPGKGLEWMGGFDPEDGETIYAQKFQGRVTMTEDTSTDTAYMELSSLRSEDTAVYYCATGPTIAAAATNWFDPGGQGTLVTVSS VL: QPVLTQPASVSGSPGQSITISCTGTSSDVGGYNYVSWYQQHPGKAPKLMIYDVSNRPSGVSNRFSGSRSGDTASLTISGLQAEDEADYYCSSYTSSSTWVFGGGTKLTVL",≤ 1

# Target: T1, stabilized prefusion SARS-CoV-2 S …
# Experiment: cell-based or functional assay
row,Binder,"IC50, neutralization of live SARS-CoV-2 virus [nM]"
1,"COVA1-18 (antibody, V domains shown) VH: EVQLVESGGGLVQPGGSLRLSCAASGFTVSSNYMSWVRQAPGKGLEWVSVIYSGGSTYYADSVKGRFTISRDNSKNTLYLQMNSLRAEDTAVYYCARVEWAAAGTFYWGQGTLVTVSS VL: QSALTQEPSLTVSPGGTVTLTCGSSTGAVTSGHYPYWFQQKPGQAPRTLIYDTSNKRSWTPARFSGSLLGGKAALTLSGAQPEDEAEYYCLLSYSGVWVFGGGTKLTVL",0.067
